According to paper PMC3461310 (2013):
Several values for one entry are separate records, joined by “and”; a condition that tells them apart may be missing. Equal entries are not always repeated.

B1: prothrombin fragment 2 fragment 2 (protein)
chain: SEGSSVNLSPPLEQCVPDRGQQYQGRLAVTTHGLPCLAWASAQAKALSKHQDFNSAVQLVENFCRNPDGDEEGVWCYVAGKPGDFGYCDLNYCEEAVEEETGDGLDEDSDRAIEGRTATSEYQTFFNPR
B2: heparin cofactor II (protein)
chain: GSKGPLDQLEKGGETAQSADPQWEQLNNKNLSMPLLPADFHKENTVTNDWIPEGEEDDDYLDLEKIFSEDDDYIDIVDSLSVSPTDSDVSAGNILQLFHGKSRIQRLNILNAKFAFNLYRVLKDQVNTFDNIFIAPVGISTAMGMISLGLKGETHEQVHSILHFKDFVNASSKYEITTIHNLFRKLTHRLFRRNFGYTLRSVNDLYIQKQFPILLDFKTKVREYYFAEAQIADFSDPAFISKTNNHIMKLTKGLIKDALENIDPATQMMILNCIYFKGSWVNKFPVEMTHNHNFRLNEREVVKVSMMQTKGNFLAANDQELDCDILQLEYVGGISMLIVVPHKMSGMKTLEAQLTPRVVERWQKSMTNRTREVLLPKFKLEKNYNLVESLKLMGIRMLFDKNGNMAGISDQRIAIDLFKHQGTITVNEEGTQATTVTTVGFMPLSTQVRFTVDRPFLFLIYEHRTSCLLFMGRVANPSRS

Legend:
[1] = target: thrombin ([4′F]FPR-T) (Homo sapiens, UniProt P00734, active site labeled with 4′-fluorescein-FPR); test: fluorescence equilibrium binding
[2] = target: thrombin (Homo sapiens, UniProt P00734, heparin (1 and 50 μM)); test: inactivation kinetics with Hir-
[3] = target: thrombin ([6F]FFR-T) (Homo sapiens, UniProt P00734, active site labeled with 6-fluorescein-FFR, heparin (T·(Hep)2 complex)); test: fluorescence equilibrium binding
[4] = target: thrombin ([4′F]FPR-T) (Homo sapiens, UniProt P00734, active site labeled with 4′-fluorescein-FPR, heparin (T·Hep complex)); test: fluorescence equilibrium binding
[5] = target: thrombin ([6F]FFR-T) (Homo sapiens, UniProt P00734, active site labeled with 6-fluorescein-FFR, heparin (T·Hep complex)); test: fluorescence equilibrium binding
[6] = target: thrombin ([4′F]FPR-T) (Homo sapiens, UniProt P00734, active site labeled with 4′-fluorescein-FPR, heparin (T·(Hep)2 complex)); test: fluorescence equilibrium binding

| Binder | Kd [1] [nM] | Kd [2] [nM] | Kd [3] [nM] | Kd [4] | Kd [5] | Kd [6] [nM] |
| --- | --- | --- | --- | --- | --- | --- |
| B1 | 5000 | – | – | – | – | – |
| B2 | – | 40 | 140 | 200 nM and 230 nM | 300 nM and 150 nM | 600 |
